Among the data in article PMC5371579, “Expression of a new laccase from Moniliophthora roreri at high levels in Pichia pastoris and its potential application in micropollutant degradation” (AMB Express, 2017) are Km, kcat and kcat/Km values, retold here.

Experiment in all cases: purified protein
Holding throughout (assay type): biochemical, Moniliophthora roreri

Substrate in data set [1]: COc1cc(C=NN=Cc2cc(OC)c(O)c(OC)c2)cc(OC)c1O
As to conditions: 100 mM citrate phosphate buffer, pH 4 (optimum).

Substrate in data set [2]: COc1ccccc1O
The following applies: 100 mM citrate phosphate buffer, pH 5 (optimum).

Substrate in data set [3]: CCn1c(=NN=c2sc3cc(S(=O)(=O)O)ccc3n2CC)sc2cc(S(=O)(=O)O)ccc21
As to conditions: 100 mM citrate phosphate buffer at optimal pH (pH 2 stated for ABTS).

Substrate in data set [4]: COc1cccc(OC)c1O
As to conditions: 100 mM citrate phosphate buffer, pH 4 (optimum).

B1: Mrl2 (Moniliophthora roreri MCA 2997) (protein)
chain: SIGPIADLVISNQDVSPDGFTRSAVVAGGDTIGPLIVGNKNDNLQINVVNNLDDDTMLQSTSIHWHGFFQQSTNWADGTAFVNQCPIAKGNSFLYDFDATDQAGTFWYHSHLSTQYCDGLRGPIVIYDPDDPHASLYDVDDESTVITLADWYHTKAKEITFGTPDSTLINGLGRWSQGNETDLSVITVTSGQRYRMRLINTACDAAYTFSIDNHTMTVIEADAVNIEPIEVDSLTIYAGQRYSFVLNADQAVGNYWIRANPNIGTMGYTNGINSAILRYDTAEEEEPDVLDITSTNSLSEADLVPLENPGAPGDPVVGGVDYALHLDFAFTSAATFTVNDATFVPPTVPVLLQILSGAQTADTLLPSGSVVALPSNSTIELSMTGGLLGLEHPIHLHGHNFDVVRVAGSTEYNYENPIRRDVVNAGSTSDNVTIRFTTDNPGPWILHCHIDWHLEAGFAIVFAEATDEWVDTIDPSDAWENLCPTYDALSDDDL
notes: native signal peptide replaced by S. cerevisiae alpha-factor leader (Kex2 cleavage; mature N-terminus SIGPI from primer); no tag (stop codon in reverse primer); codon-optimized gene; secreted from Pichia pastoris X-33, DEAE-purified, glycosylated (~90 kDa; calculated 54 kDa); EC 1.10.3.2
Usually Km stands for the substrate concentration at which the rate is half of its maximum. In general, kcat refers to the number of substrate molecules converted per active site and unit of time at saturation. As a reminder, the kcat/Km is the turnover number divided by the Michaelis constant. Consider B1, for which the Km in “purified protein [1]” stood at 12.45 ± 1.6 µM; in the data set “purified protein [2]”, 2235 ± 117.5 µM; in “purified protein [3]” it was 24.13 ± 1.9 µM; in the data set “purified protein [4]”, 358 ± 58.5 µM. For the same protein, the kcat in the data set “purified protein [1]” amounted to 21 s⁻¹; in the data set “purified protein [2]”, 37 s⁻¹; in the data set “purified protein [3]”, 316 s⁻¹; in “purified protein [4]”, 74 s⁻¹. Besides, the kcat/Km in the data set “purified protein [1]” turned out to be 1.68e+06 M⁻¹ s⁻¹; in “purified protein [2]” it was 16000 M⁻¹ s⁻¹; in the data set “purified protein [3]”, 1.31e+07 M⁻¹ s⁻¹; in “purified protein [4]” it was 207000 M⁻¹ s⁻¹.
